In patent US20230220042A1 (SHANGHAI JIAO TONG UNIVERSITY SCHOOL OF MEDICINE, published 2023):

How the values were obtained:
[1] = target: T1, FcγRIIB (human, UniProt P31994 43-217, biotin-labeled); test: ELISA; relative affinity to FcγRIIB over that to FcγRIIA131R
T1 construct: extracellular domain; Bought protein; also called CD32b
T1 sequence (looked up): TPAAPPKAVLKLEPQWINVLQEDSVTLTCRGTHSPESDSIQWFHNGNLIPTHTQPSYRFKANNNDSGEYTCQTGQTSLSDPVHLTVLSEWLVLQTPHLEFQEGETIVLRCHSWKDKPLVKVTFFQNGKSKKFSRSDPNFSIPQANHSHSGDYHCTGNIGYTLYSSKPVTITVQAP

[2] = target: T2, FcγRIIIA^158F (human, UniProt P08637 17-208, biotin-labeled); test: ELISA, coated antibody, biotin-FcγR;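 for Absorbance value: antibody coated at 2 µg/mL at 100 µL per well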
T2 construct: extracellular domain; Bought protein; also called RIIIAF

[3] = target: T3, FcγRIIA^131H (human, UniProt P12318 34-217, biotin-labeled); test: ELISA, coated antibody, biotin-FcγR;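 for Absorbance value: antibody coated at 2 µg/mL at 100 µL per well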
T3 construct: extracellular domain; Bought protein; also called RIIAH
T3 sequence (looked up): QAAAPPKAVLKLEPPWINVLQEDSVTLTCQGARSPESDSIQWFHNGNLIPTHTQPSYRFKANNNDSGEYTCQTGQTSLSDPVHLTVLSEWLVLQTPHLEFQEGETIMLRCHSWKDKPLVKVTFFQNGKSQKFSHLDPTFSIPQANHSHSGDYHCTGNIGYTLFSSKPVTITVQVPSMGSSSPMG

[4] = target: T4, FcγRIIA^131R (human, UniProt P12318 34-217, biotin-labeled); test: ELISA, coated antibody, biotin-FcγR;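 for Absorbance value: antibody coated at 2 µg/mL at 100 µL per well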
T4 construct: extracellular domain; Bought protein; also called RIIAR
T4 sequence (looked up): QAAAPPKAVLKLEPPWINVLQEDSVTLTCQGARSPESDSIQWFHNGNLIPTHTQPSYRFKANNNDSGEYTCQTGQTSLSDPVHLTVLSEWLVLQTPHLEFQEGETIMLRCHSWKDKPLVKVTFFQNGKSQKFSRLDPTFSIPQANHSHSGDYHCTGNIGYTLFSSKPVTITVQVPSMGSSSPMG

[5] = target: T5, FcγRIIIA^158V (human, UniProt P08637 17-208, biotin-labeled); test: ELISA, coated antibody, biotin-FcγR;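 for Absorbance value: antibody coated at 2 µg/mL at 100 µL per well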
T5 construct: extracellular domain; Bought protein; also called RIIIAV; CD16a 158V

[6] = target: T6, FcγRI (human, UniProt P12314 16-292, biotin-labeled); test: ELISA, coated antibody, biotin-FcγR;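 for Absorbance value: antibody coated at 2 µg/mL at 100 µL per well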
T6 construct: extracellular domain; Bought protein; also called CD64

[7] = target: T1, FcγRIIB; test: ELISA, coated antibody, biotin-FcγR;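 for Absorbance value: antibody coated at 2 µg/mL at 100 µL per well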

T2 sequence (P08637 17-208): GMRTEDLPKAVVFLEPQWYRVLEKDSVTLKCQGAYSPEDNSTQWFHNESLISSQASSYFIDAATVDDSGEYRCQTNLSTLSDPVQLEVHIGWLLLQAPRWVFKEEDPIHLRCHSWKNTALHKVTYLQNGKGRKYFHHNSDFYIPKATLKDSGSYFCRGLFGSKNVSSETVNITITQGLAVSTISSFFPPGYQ
T6 sequence (P12314 16-292): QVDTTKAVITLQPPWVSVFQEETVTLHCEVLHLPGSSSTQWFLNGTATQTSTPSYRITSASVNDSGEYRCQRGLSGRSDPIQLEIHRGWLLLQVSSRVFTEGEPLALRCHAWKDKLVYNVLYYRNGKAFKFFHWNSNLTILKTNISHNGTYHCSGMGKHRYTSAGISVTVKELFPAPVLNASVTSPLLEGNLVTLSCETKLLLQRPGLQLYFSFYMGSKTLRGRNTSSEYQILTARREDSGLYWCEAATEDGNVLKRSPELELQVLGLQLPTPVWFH
T5 sequence (P08637 17-208 F176V): as the sequence (P08637 17-208) above, with F160V counted along it

Binder	RIIB/RIIAR [1] [ratio]	Absorbance value [2] [A650]	Relative binding affinity RIIIAF/G1 [2] [ratio]	Absorbance value [3] [A650]	Relative binding affinity RIIAH/G1 [3] [ratio]	Absorbance value [4] [A650]	Relative binding affinity RIIAR/G1 [4] [ratio]	Absorbance value [5] [A650]	Relative binding affinity RIIIAV/G1 [5] [ratio]	Absorbance value [6] [A650]	Relative binding affinity RI/G1 [6] [ratio]	Absorbance value [7] [A650]	Increased factor of RIIB binding compared with wild-type IgG2 [7] [fold]	Relative binding affinity RIIB/G1 [7] [ratio]
anti-human OX40 IgG2 antibody Mut_25 (V234Q/V266L/S267D/H268D/E269D/P271Q) (antibody, Substitutions in Eu numbering; entries include an unstated signal peptide) heavy: QVQLQESGPGLVKPSGTLSLTCAVSGGSISSSIWWSWVRQPPGKGLEWIGEIHHSGNTNCNPSLKSRVTISIDKSKNQFSLKLTSVTAADTAVYYCARAGTGTTLDYWGQGTLVTVSSASTKGPSVFPLAPCSRSTSESTAALGCLVKDYFPEPVTVSWNSGALTSGVHTFPAVLQSSGLYSLSSVVTVPSSNFGTQTYTCNVDHKPSNTKVDKTVERKCCVECPPCPAPPQAGPSVFLFPPKPKDTLMISRTPEVTCVVVDLDDDDQEVQFNWYVDGVEVHNAKTKPREEQFNSTFRVVSVLTVVHQDWLNGKEYKCKVSNKGLPAPIEKTISKTKGQPREPQVYTLPPSREEMTKNQVSLTCLVKGFYPSDIAVEWESNGQPENNYKTTPPMLDSDGSFFLYSKLTVDKSRWQQGNVFSCSVMHEALHNHYTQKSLSLSPGK light: EIVLTQSPGTLSLSPGERATLSCRASQSVSGDYLAWYQQKLGQAPRLLIYGASIRATGIPDRFSGSGSGTDFTLTISKLEPEDFAVYYCQQYGSSPLTFGGGTKVEIKRTVAAPSVFIFPPSDEQLKSGTASVVCLLNNFYPREAKVQWKVDNALQSGNSQESVTEQDSKDSTYSLSSTLTLSKADYEKHKVYACEVTHQGLSSPVTKSFNRGEC	1.01	0.07	0.36	0.06	0.1	0.3	1.13	0.05	0.06	0.12	0.05	0.86	11.5	1.14
anti-human OX40 IgG2 antibody Mut_8 (V266L/L328W) (antibody, name in EU numbering, Substitutions in Eu numbering; entries include an unstated signal peptide) heavy: QVQLQESGPGLVKPSGTLSLTCAVSGGSISSSIWWSWVRQPPGKGLEWIGEIHHSGNTNCNPSLKSRVTISIDKSKNQFSLKLTSVTAADTAVYYCARAGTGTTLDYWGQGTLVTVSSASTKGPSVFPLAPCSRSTSESTAALGCLVKDYFPEPVTVSWNSGALTSGVHTFPAVLQSSGLYSLSSVVTVPSSNFGTQTYTCNVDHKPSNTKVDKTVERKCCVECPPCPAPPVAGPSVFLFPPKPKDTLMISRTPEVTCVVVDLSHEDPEVQFNWYVDGVEVHNAKTKPREEQFNSTFRVVSVLTVVHQDWLNGKEYKCKVSNKGWPAPIEKTISKTKGQPREPQVYTLPPSREEMTKNQVSLTCLVKGFYPSDIAVEWESNGQPENNYKTTPPMLDSDGSFFLYSKLTVDKSRWQQGNVFSCSVMHEALHNHYTQKSLSLSPGK light: EIVLTQSPGTLSLSPGERATLSCRASQSVSGDYLAWYQQKLGQAPRLLIYGASIRATGIPDRFSGSGSGTDFTLTISKLEPEDFAVYYCQQYGSSPLTFGGGTKVEIKRTVAAPSVFIFPPSDEQLKSGTASVVCLLNNFYPREAKVQWKVDNALQSGNSQESVTEQDSKDSTYSLSSTLTLSKADYEKHKVYACEVTHQGLSSPVTKSFNRGEC	1.09	0.08	0.44	0.52	0.9	0.34	1.3	0.07	0.07	0.14	0.05	1.07	14.3	1.42
anti-human OX40 IgG2 antibody Mut_30 (V234Q/V266L/S267E/H268S/E269V) (antibody, Substitutions in Eu numbering; entries include an unstated signal peptide) heavy: QVQLQESGPGLVKPSGTLSLTCAVSGGSISSSIWWSWVRQPPGKGLEWIGEIHHSGNTNCNPSLKSRVTISIDKSKNQFSLKLTSVTAADTAVYYCARAGTGTTLDYWGQGTLVTVSSASTKGPSVFPLAPCSRSTSESTAALGCLVKDYFPEPVTVSWNSGALTSGVHTFPAVLQSSGLYSLSSVVTVPSSNFGTQTYTCNVDHKPSNTKVDKTVERKCCVECPPCPAPPQAGPSVFLFPPKPKDTLMISRTPEVTCVVVDLESVDPEVQFNWYVDGVEVHNAKTKPREEQFNSTFRVVSVLTVVHQDWLNGKEYKCKVSNKGLPAPIEKTISKTKGQPREPQVYTLPPSREEMTKNQVSLTCLVKGFYPSDIAVEWESNGQPENNYKTTPPMLDSDGSFFLYSKLTVDKSRWQQGNVFSCSVMHEALHNHYTQKSLSLSPGK light: EIVLTQSPGTLSLSPGERATLSCRASQSVSGDYLAWYQQKLGQAPRLLIYGASIRATGIPDRFSGSGSGTDFTLTISKLEPEDFAVYYCQQYGSSPLTFGGGTKVEIKRTVAAPSVFIFPPSDEQLKSGTASVVCLLNNFYPREAKVQWKVDNALQSGNSQESVTEQDSKDSTYSLSSTLTLSKADYEKHKVYACEVTHQGLSSPVTKSFNRGEC	1.05	0.06	0.33	0.18	0.32	0.26	1.01	0.06	0.07	0.12	0.05	0.8	10.7	1.06
anti-human OX40 IgG2 antibody Mut_27 (V266L/S267E/H268S/P271V) (antibody, name in EU numbering, Substitutions in Eu numbering; entries include an unstated signal peptide) heavy: QVQLQESGPGLVKPSGTLSLTCAVSGGSISSSIWWSWVRQPPGKGLEWIGEIHHSGNTNCNPSLKSRVTISIDKSKNQFSLKLTSVTAADTAVYYCARAGTGTTLDYWGQGTLVTVSSASTKGPSVFPLAPCSRSTSESTAALGCLVKDYFPEPVTVSWNSGALTSGVHTFPAVLQSSGLYSLSSVVTVPSSNFGTQTYTCNVDHKPSNTKVDKTVERKCCVECPPCPAPPVAGPSVFLFPPKPKDTLMISRTPEVTCVVVDLESEDVEVQFNWYVDGVEVHNAKTKPREEQFNSTFRVVSVLTVVHQDWLNGKEYKCKVSNKGLPAPIEKTISKTKGQPREPQVYTLPPSREEMTKNQVSLTCLVKGFYPSDIAVEWESNGQPENNYKTTPPMLDSDGSFFLYSKLTVDKSRWQQGNVFSCSVMHEALHNHYTQKSLSLSPGK light: EIVLTQSPGTLSLSPGERATLSCRASQSVSGDYLAWYQQKLGQAPRLLIYGASIRATGIPDRFSGSGSGTDFTLTISKLEPEDFAVYYCQQYGSSPLTFGGGTKVEIKRTVAAPSVFIFPPSDEQLKSGTASVVCLLNNFYPREAKVQWKVDNALQSGNSQESVTEQDSKDSTYSLSSTLTLSKADYEKHKVYACEVTHQGLSSPVTKSFNRGEC	0.87	0.09	0.49	0.48	0.84	0.28	1.06	0.1	0.11	0.18	0.07	0.7	9.29	0.92
anti-human OX40 IgG2 antibody Mut_28 (P233G/S267E/S298G) (antibody, Substitutions in Eu numbering; entries include an unstated signal peptide) heavy: QVQLQESGPGLVKPSGTLSLTCAVSGGSISSSIWWSWVRQPPGKGLEWIGEIHHSGNTNCNPSLKSRVTISIDKSKNQFSLKLTSVTAADTAVYYCARAGTGTTLDYWGQGTLVTVSSASTKGPSVFPLAPCSRSTSESTAALGCLVKDYFPEPVTVSWNSGALTSGVHTFPAVLQSSGLYSLSSVVTVPSSNFGTQTYTCNVDHKPSNTKVDKTVERKCCVECPPCPAPGVAGPSVFLFPPKPKDTLMISRTPEVTCVVVDVEHEDPEVQFNWYVDGVEVHNAKTKPREEQFNGTFRVVSVLTVVHQDWLNGKEYKCKVSNKGLPAPIEKTISKTKGQPREPQVYTLPPSREEMTKNQVSLTCLVKGFYPSDIAVEWESNGQPENNYKTTPPMLDSDGSFFLYSKLTVDKSRWQQGNVFSCSVMHEALHNHYTQKSLSLSPGK light: EIVLTQSPGTLSLSPGERATLSCRASQSVSGDYLAWYQQKLGQAPRLLIYGASIRATGIPDRFSGSGSGTDFTLTISKLEPEDFAVYYCQQYGSSPLTFGGGTKVEIKRTVAAPSVFIFPPSDEQLKSGTASVVCLLNNFYPREAKVQWKVDNALQSGNSQESVTEQDSKDSTYSLSSTLTLSKADYEKHKVYACEVTHQGLSSPVTKSFNRGEC	0.87	0.08	0.44	0.14	0.24	0.35	1.35	0.08	0.08	0.13	0.05	0.88	11.8	1.17
